How the values were obtained:
Experiment in all cases: cell-based or functional assay
[1] = biological target: HIV-1 Env of strain X1254_c3 (HIV-1)
[2] = biological target: HIV-1 Env of strain C3347.c11 (HIV-1)
[3] = biological target: HIV-1 Env of strain 1006_11_C3_1601 (HIV-1)
[4] = biological target: HIV-1 Env of strain 3415.v1.c1 (HIV-1)
[5] = biological target: HIV-1 Env of strain X1193_c1 (HIV-1)
[6] = biological target: HIV-1 Env of strain 3301.v1.c24 (HIV-1)
[7] = biological target: HIV-1 Env of strain CNE53 (HIV-1)
[8] = biological target: HIV-1 Env of strain 6540.v4.cl (HIV-1)
[9] = biological target: HIV-1 Env of strain CAP210.2.00.E8 (HIV-1)
[10] = biological target: HIV-1 Env of strain 89-F1_2_25 (HIV-1)
[11] = biological target: HIV-1 Env of strain T250-4 (HIV-1)
[12] = biological target: HIV-1 Env of strain 211-9 (HIV-1)
[13] = biological target: HIV-1 Env of strain Du172.17 (HIV-1)
[14] = biological target: HIV-1 Env of strain 3718.v3.c11 (HIV-1)
[15] = biological target: HIV-1 Env of strain 703357.C02 (HIV-1)
[16] = biological target: HIV-1 Env of strain CNE20 (HIV-1)
[17] = biological target: HIV-1 Env of strain CNE21 (HIV-1)
[18] = biological target: HIV-1 Env of strain HIV-16845-2.22 (HIV-1)
[19] = biological target: HIV-1 Env of strain C2101.c01 (HIV-1)
[20] = biological target: HIV-1 Env of strain ZM233M.PB6 (HIV-1)
[21] = biological target: HIV-1 Env of strain 3103.v3.c10 (HIV-1)
[22] = biological target: HIV-1 Env of strain TRO.11 (HIV-1)
[23] = biological target: HIV-1 Env of strain QH0692.42 (HIV-1)
[24] = biological target: HIV-1 Env of strain T255-34 (HIV-1)
[25] = biological target: HIV-1 Env of strain AC10.0.29 (HIV-1)
[26] = biological target: HIV-1 Env of strain Ce0393_C3 (HIV-1)
[27] = biological target: HIV-1 Env of strain R1166.c01 (HIV-1)
[28] = biological target: HIV-1 Env of strain CNE30 (HIV-1)
[29] = biological target: HIV-1 Env of strain CNE17 (HIV-1)
[30] = biological target: HIV-1 Env of strain 6535.3 (HIV-1)
[31] = biological target: HIV-1 Env of strain ZM53M.PB12 (HIV-1)
[32] = biological target: HIV-1 Env of strain ZM214M.PL15 (HIV-1)
[33] = biological target: HIV-1 Env of strain ZM197M.PB7 (HIV-1)
[34] = biological target: HIV-1 Env of strain CAAN5342.A2 (HIV-1)
[35] = biological target: HIV-1 Env of strain Q23.17 (HIV-1)
[36] = biological target: HIV-1 Env of strain 1054_07_TC4_1499 (HIV-1)
[37] = biological target: HIV-1 Env of strain 1056_10_TA11_1826 (HIV-1)
[38] = biological target: HIV-1 Env of strain 0330.v4.c3 (HIV-1)
[39] = biological target: HIV-1 Env of strain Q461.e2 (HIV-1)
[40] = biological target: HIV-1 Env of strain Q259.d2.17 (HIV-1)
[41] = biological target: HIV-1 Env of strain TROJO4551.58 (HIV-1)
[42] = biological target: HIV-1 Env of strain 6811.v7.c18 (HIV-1)
[43] = biological target: HIV-1 Env of strain R2184.c04 (HIV-1)

B1: NIH45-46 IgG (antibody, V domains shown)
VH: QVRLSQSGGQMKKPGESMRLSCRASGYEFLNCPINWIRLAPGRRPEWMGWLKPRGGAVNYARKFQGRVTMTRDVYSDTAFLELRSLTSDDTAVYFCTRGKYCTARDYYNWDFEHWGRGAPVTVSS
VL: EIVLTQSPATLSLSPGETAIISCRTSQSGSLAWYQQRPGQAPRLVIYSGSTRAAGIPDRFSGSRWGADYNLSISNLESGDFGVYYCQQYEFFGQGTKVQVDI
With B1 as the binder, how does the “neutralization IC50” value [1] read?
The value was 0.032 µg/mL.

And the “neutralization IC50” value [2]?
Its value is 0.029 µg/mL.

And the “neutralization IC50” value [3]?
Its value is 0.027 µg/mL.

And the “neutralization IC50” value [4]?
The value was 0.022 µg/mL.

What about the “neutralization IC50” value [5] of the same binder?
Its value is 0.021 µg/mL.

What about the “neutralization IC50” value [6] of the same binder?
The value was 0.009 µg/mL.

What about the “neutralization IC50” value [7] of the same binder?
The value was 0.008 µg/mL.

What about the “neutralization IC50” value [8] of the same binder?
The value was over 50 µg/mL.

And the “neutralization IC50” value [9]?
The value was over 50 µg/mL.

And the “neutralization IC50” value [10]?
The value was over 50 µg/mL.

What about the “neutralization IC50” value [11] of the same binder?
The value was over 50 µg/mL.

What about the “neutralization IC50” value [12] of the same binder?
Its value is over 50 µg/mL.

And the “neutralization IC50” value [13]?
The value was over 50 µg/mL.

What about the “neutralization IC50” value [14] of the same binder?
The value was 19.6 µg/mL.

What about the “neutralization IC50” value [15] of the same binder?
The value was 19.2 µg/mL.

What about the “neutralization IC50” value [16] of the same binder?
The value was 7.83 µg/mL.

And the “neutralization IC50” value [17]?
Its value is 6.01 µg/mL.

And the “neutralization IC50” value [18]?
Its value is 5 µg/mL.

What about the “neutralization IC50” value [19] of the same binder?
The value was 4.24 µg/mL.

And the “neutralization IC50” value [20]?
The value was 2.5 µg/mL.

And the “neutralization IC50” value [21]?
The value was 1.77 µg/mL.

What about the “neutralization IC50” value [22] of the same binder?
The value was 1.61 µg/mL.

And the “neutralization IC50” value [23]?
Its value is 0.72 µg/mL.

And the “neutralization IC50” value [24]?
The value was 0.71 µg/mL.

What about the “neutralization IC50” value [25] of the same binder?
Its value is 0.56 µg/mL.

What about the “neutralization IC50” value [26] of the same binder?
Its value is 0.334 µg/mL.

What about the “neutralization IC50” value [27] of the same binder?
Its value is 0.31 µg/mL.

And the “neutralization IC50” value [28]?
The value was 0.309 µg/mL.

And the “neutralization IC50” value [29]?
Its value is 0.261 µg/mL.

What about the “neutralization IC50” value [30] of the same binder?
The value was 0.23 µg/mL.

What about the “neutralization IC50” value [31] of the same binder?
The value was 0.175 µg/mL.

What about the “neutralization IC50” value [32] of the same binder?
Its value is 0.17 µg/mL.

And the “neutralization IC50” value [33]?
The value was 0.15 µg/mL.

And the “neutralization IC50” value [34]?
The value was 0.15 µg/mL.

And the “neutralization IC50” value [35]?
The value was 0.14 µg/mL.

And the “neutralization IC50” value [36]?
Its value is 0.113 µg/mL.

And the “neutralization IC50” value [37]?
Its value is 0.094 µg/mL.

What about the “neutralization IC50” value [38] of the same binder?
The value was 0.09 µg/mL.

And the “neutralization IC50” value [39]?
Its value is 0.076 µg/mL.

What about the “neutralization IC50” value [40] of the same binder?
Its value is 0.043 µg/mL.

And the “neutralization IC50” value [41]?
The value was 0.04 µg/mL.

What about the “neutralization IC50” value [42] of the same binder?
The value was 0.035 µg/mL.

And the “neutralization IC50” value [43]?
The value was 0.034 µg/mL.

— patent publication US20130209454A1 (CALIFORNIA INSTITUTE OF TECHNOLOGY, published 2013)
